These results are taken from the supplement of paper PMC12455559.

Data set [1] can be described thus: PET hydrolysis, aromatic products released after 48 h (umol product/mg enzyme); higher = more PET depolymerization activity. The conditions noted are these: substrate: cryPow. The gist of the method: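 Reactions ran in sealed plates without shaking for 48 h at 40 or 60 °C. Each held 3.5 mg amorphous PET film or crystalline PET powder, 450 μL buffer and 5 μg (50 μL) of tagless, SUMO-cleaved, nickel-purified candidate enzyme. Buffers were 50 mM NaCitrate at pH 4.5 or 5.5, 50 mM NaPhosphate at pH 6.5 or 7.5, and glycine at pH 8.5. The supernatant's aromatic product, read at 260 and 280 nm against buffer blanks, gives PET hydrolysis activity per mg enzyme.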

Data set [2] can be described thus: melting temperature (DSF); higher = more thermostable. The method in brief: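 Values are melting temperatures from differential scanning fluorimetry. Candidate enzymes were expressed in E. coli C41(DE3), purified on nickel beads and freed by SUMO protease cleavage. In sealed PCR plates on a Bio-Rad CFX96, 45 μL enzyme (0 to 0.3 mg/mL) was combined with 5 μL 5X Sypro Orange. Fluorescence was recorded from 25 °C for 250 cycles, rising 0.3 °C per cycle at a ramp of 0.3 °C/s.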

Data set [3] in a line: purified protein yield per well (BCA); higher = higher soluble expression. The gist of the method: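 Candidate enzymes were produced in E. coli C41(DE3) grown in 2 mL autoinduction cultures containing 100 µg/mL kanamycin, first at 37 °C for 2 h and then at 18 °C for 40 h. After cell lysis, protein was captured on Ni-charged magnetic beads and freed by SUMO protease cleavage on an OT-2 robot. Purified protein yield per well was read with the Pierce Rapid Gold BCA kit. Values under 25 ug (0.1 mg/mL) fall below the detection threshold.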

A value given as a limit tells only on which side of the number the result lay.

“DEIGQAPTASNITGNGSFATTSASISSTVAGFGGGRVYYPTATGTYPVIAISPGFTATWSSLSWIGPRLSSWGFVVVGIETNSIYDQPGSRGSQLLAALNWAVSSSPTAVRSRVDGSRRGVAGHSMGGGGTLEALAADTSGLVKAGVPLAPWNSDKTWNNVSEPVLIVGGQSDTIAPVSSHSVPFYNTLAGPKTYVELTGASHFFPQSSNATTSRALVSWFKRWLNQDSRFTPFTCGFSGAAVSSFRTNAC [ESM093]”: the PET hydrolysis in data set [1] (40 °C, pH 4.5) was less than 3; in data set [1] (40 °C, pH 5.5), 25; in data set [1] (40 °C, pH 6.5) it was 44; in data set [1] (40 °C, pH 7.5), 72; in data set [1] (60 °C, pH 4.5), less than 3; in data set [1] (60 °C, pH 5.5) it was 7. Also, the PET hydrolysis was 23 in data set [1] (60 °C, pH 6.5) and 39 in data set [1] (60 °C, pH 7.5). This sequence also returned a melting temperature in data set [2] of 65.2 C. Moreover, the “purified protein yield per well” value in data set [3] is 93.2 µg.

On to “DEIGQAPTASNITGNGSFATTSESISSLVSGFGGGRVYYPTATGRYPVIAISPGFTATWSSLAWIGPRLSSWGFVVVGIETNSIYDQPGSRGNQLLAALNWAVNSSSTAVRSRVDGSRRGVAGHSMGGGGTLEALAADTSGLVKAGVPLAPWNTDKIWSNVSEPVLIVGGQADTIAPVATHSVPFYNTLAGPKTYVELTGASHFFPQTTNATTSRALVSWFKRWLNQDSRFTPYTCGFGGLAVSDFRSNAC [ESM147]”, for which the PET hydrolysis in data set [1] (40 °C, pH 4.5) is 11; in data set [1] (40 °C, pH 5.5) it was 29; in data set [1] (40 °C, pH 6.5), 31; in data set [1] (40 °C, pH 7.5), 46; in data set [1] (60 °C, pH 4.5), less than 3; in data set [1] (60 °C, pH 5.5), 22. Moreover, the PET hydrolysis in data set [1] (60 °C, pH 6.5) was found to be 42; in data set [1] (60 °C, pH 7.5), 81. This sequence also came in with a melting temperature in data set [2] of 67.9 C. For the same sequence, the “purified protein yield per well” value in data set [3] worked out at 75.4 µg.

Turning to “DEIGQAPTSSNITGNGSFSVATYNISSLVSGFGGGVAYYPTTSGRYPVIAVSPGFTARWSSISWIGPRLASWGFVVVGIETNSIYDQPGSRGSQLLAALNWAVNSAPSSVRDRVDGSRRGVAGHSMGGGGTLEALAADTTGLVKAGVPIAPWNTDTTWGGLNEAVQIVGGESDTIAPVSSHSIPFYSTLGGPKSYVELNGASHFFPQTSNSTLSRALVSWFKRYLNNDARFTPFTCGYSGLSISDFRSNNC [ESM144]”, the PET hydrolysis in data set [1] (40 °C, pH 4.5) is less than 3; in data set [1] (40 °C, pH 5.5), less than 3; in data set [1] (40 °C, pH 6.5), less than 3; in data set [1] (40 °C, pH 7.5) it was 6; in data set [1] (60 °C, pH 4.5), less than 3; in data set [1] (60 °C, pH 5.5), less than 3. Moreover, the PET hydrolysis is less than 3 in data set [1] (60 °C, pH 6.5) and less than 3 in data set [1] (60 °C, pH 7.5). The same sequence came in with a melting temperature in data set [2] of 50.2 C. The “purified protein yield per well” value in data set [3] is 89.1 µg.

With “DEIGQAPTSSNITGNGSFSVSTYNISSLVTGFGGGVAYYPSTAGRYPVVAVSPGFTARWSSISWIGPRLASWGFVVVGIETNSVYDQPASRGSQLLAALNWAVNSAPSAITSRADGSRRGVAGHSMGGGGTLEALAADTTGNVKAGVPLAPWNSDKTWNNVNEPVQIIGGESDTVAGVSSHSIPFYNSLGGSKSYVELNGASHFFPQTTNATTSRALVSWFKRWLNQDARFTPFTCGYGGTAVSDFRTNAC [ESM177]”, the PET hydrolysis is less than 3 in data set [1] (40 °C, pH 4.5); less than 3 in data set [1] (40 °C, pH 5.5); 13 in data set [1] (40 °C, pH 6.5); 42 in data set [1] (40 °C, pH 7.5); less than 3 in data set [1] (60 °C, pH 4.5); less than 3 in data set [1] (60 °C, pH 5.5). The PET hydrolysis is less than 3 in data set [1] (60 °C, pH 6.5) and 7 in data set [1] (60 °C, pH 7.5). In data set [2], this sequence yielded a melting temperature of 54.4 C. For the same sequence, the “purified protein yield per well” value in data set [3] is 71.4 µg.

Consider “DPPTHAKGVKPGPSELAAPSASDLAADGPHAVTTTAISGSVTPGFGAATIYAPASGSGYGGVAISPGYMSTQSAVSWLGPRLASHGFVVITFDTTTIWDNPDSRGVQLLAALDYLTGSSPARGQVDASRLAVMGHSMGGGGSLAAAKSRPSIDAAIPLTPWHTDKTWPEVSTPTLIVGAENDGIAPVASHAEPFYESLATSTDRAYLELNAATHSAPNSENAQISTYSLAWLKRFVDGDTSVDPILCPGPAASSTVEEYRSSCPF [DP019]”, for which the PET hydrolysis is less than 3 in data set [1] (40 °C, pH 5.5); less than 3 in data set [1] (40 °C, pH 6.5); less than 3 in data set [1] (40 °C, pH 7.5); less than 3 in data set [1] (40 °C, pH 8.5). The sequence further displayed a melting temperature in data set [2] of 42.7 C. In addition, the “purified protein yield per well” value in data set [3] came out at 28 µg.

With “DQGPPPTIASLSVDGAYAVMTYTDIPDVPEFGDATVYYPVDTAMPIGGVAISPGWTELQRHIEWWGPRLASHGYAVLILDTNDAMADQPEQRAEALIAAVRILRGENDRAGSPLSGRIDTEKMAIMGHSMGGGGVLIAANNYPAEIQAAIPFTPWQPAGDFSQVVAPTLVMAGSADRVASVSDHAWPHYQSIPESTIKVFLEIDGGSHFIADTSRGEDLGTIGRYGIAWLKLYLDGDERYRGFIYGDEAASDSEKFSRYVTSP [TEP021]”, the PET hydrolysis in data set [1] (40 °C, pH 4.5) is less than 3; in data set [1] (40 °C, pH 5.5), less than 3; in data set [1] (40 °C, pH 6.5), less than 3; in data set [1] (40 °C, pH 7.5) it was less than 3; in data set [1] (60 °C, pH 4.5), less than 3; in data set [1] (60 °C, pH 5.5), less than 3. Also, the PET hydrolysis in data set [1] (60 °C, pH 6.5) is less than 3; in data set [1] (60 °C, pH 7.5), less than 3. Besides, the melting temperature in data set [2] was found to be 30.7 C. Also, the “purified protein yield per well” value in data set [3] is 76.5 µg.

With “DQIGQAPTASNITGNGSFATTSASISSTVSGFGGGRVYYPTAAGTYPVIAISPGFTATWSSLAWIGPRLSSWGFVVVGIETNSIYDQPASRGNQLLAALNWAVNSSPTAVRSHVDGSRRGVAGHSMGGGGTLEALAADTTGLVKAGVPLAPWNTDKTWNNVSEPVLIVGGQADTVAPVASHSIPFYNTLAGPKTYVELTGQSHFFPQTTNATASRALVAWFKRWVSQDSRFTPFTCGFSGVAVSDFRSNAC [ESM082]”, the PET hydrolysis is 9 in data set [1] (40 °C, pH 4.5); 22 in data set [1] (40 °C, pH 5.5); 29 in data set [1] (40 °C, pH 6.5); 36 in data set [1] (40 °C, pH 7.5); less than 3 in data set [1] (60 °C, pH 4.5); 23 in data set [1] (60 °C, pH 5.5). The PET hydrolysis was 46 in data set [1] (60 °C, pH 6.5) and 65 in data set [1] (60 °C, pH 7.5). This sequence registered a melting temperature in data set [2] of 67.6 C. In addition, the “purified protein yield per well” value in data set [3] came to 151 µg.

With “DQVGQAPTADNITGNGSFATTSAAITNQTGFGGGTVYYPTADGTYPVVAIVPGFAATWSQISWLGPRVASWGFVVVGVDTTSVFDSPQQRGDEFLAALNWAANSAPASTRGKVDGTRRGVAGWSMGGGGTLEAMAKDTTLKAGVPLAPWDTTQDWSKIGKPVFIVGAQNDLIAPPASHAIPFYNSLAGPKSYLELAGADHFFPISANPTVSRAVVSWFKRFVSADDRFAPFTCGFAGAAVSAFRTTAC [TEP103]”, the PET hydrolysis in data set [1] (40 °C, pH 4.5) is 19; in data set [1] (40 °C, pH 5.5), 35; in data set [1] (40 °C, pH 6.5), 71; in data set [1] (40 °C, pH 7.5), 43. In data set [2], this sequence yielded a melting temperature of 71.8 C. For the same sequence, in data set [3], the “purified protein yield per well” value worked out at 45.9 µg.
